# Test results reported in article PMC6638984, “Increased association between Epstein-Barr virus EBNA2 from type 2 strains and the transcriptional repressor BS69 restricts EBNA2 activity” (PLoS Pathogens, 2019).
# Numbering of substitutions follows the chain as printed. Names and notes keep the numbering of the source.
# T1: BS69CC-MYND (BS69 amino acid 480–602, CC-MYND domain) (Homo sapiens, UniProt Q15326)
# T1 construct: The BS69 CC-MYND domain (amino acids 480–602) was amplified from pCI-BS69; GST (N, cleaved yes); 6xHis (N, cleaved yes); made in house; host or cells: E. coli Rosetta 2 (DE3) pLysS
# T1 sequence (Q15326 480-602): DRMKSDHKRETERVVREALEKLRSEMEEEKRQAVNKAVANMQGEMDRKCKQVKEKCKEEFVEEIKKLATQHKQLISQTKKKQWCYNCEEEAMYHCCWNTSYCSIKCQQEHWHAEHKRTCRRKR
# B1: EBNA2_348-422 SD + m3 T1: type 2 EBNA2 polypeptide 348–422 containing both the SD and motif 3 (PSIDP) mutations (protein)
# chain: SMPQLSPVVSLHQGQGPENSPTPGPSTAGPVCRVTPSATPDISPIHEPESSDSEEPPFLFPDDWYPPSIDPAELD
# modifications: left off: His6, N-terminal, cleaved
# notes: type 2 EBNA2 polypeptide 348–422 containing both the SD and motif 3 (PSIDP) mutations
# B2: T2 EBNA2_348-422: type 2 EBNA2 polypeptide containing motif 1, 2 and 3, amino acids 348–422 (protein)
# chain: B1 chain with D62S, S68T, I69L, D70E
# modifications: left off: His6, N-terminal, cleaved
# B3: T2 EBNA2_348-422 SD: type 2 EBNA2 polypeptide 348–422 with an S409D mutation (protein)
# chain: B1 chain with S68T, I69L, D70E
# modifications: left off: His6, N-terminal, cleaved
# notes: type 2 EBNA2 polypeptide 348–422 with an S409D mutation
# B4: EBNA2_348-422 SD + m3 mt: type 2 EBNA2 polypeptide 348–422 containing both the SD and motif 3 (ATAEA) mutations (protein)
# chain: B1 chain with P67A, S68T, I69A, D70E, P71A
# modifications: left off: His6, N-terminal, cleaved
# notes: type 2 EBNA2 polypeptide 348–422 containing both the SD and motif 3 (ATAEA) mutations
# B5: T2 EBNA2_348-422 m3 T1: T2 EBNA2_348-422 with motif 3 PTLEP replaced with the type 1 sequence PSIDP (protein)
# chain: B1 chain with D62S
# modifications: left off: His6, N-terminal, cleaved
# B6: T2 EBNA2_348-412: type 2 EBNA2 polypeptide, amino acids 348–412, expressed and purified from E.coli (protein)
# chain: SMPQLSPVVSLHQGQGPENSPTPGPSTAGPVCRVTPSATPDISPIHEPESSDSEEPPFLFPSDWY
# modifications: left off: His6, N-terminal, cleaved
# notes: type 2 EBNA2 polypeptide, amino acids 348–412, expressed and purified from E.coli
# B7: T2 EBNA2_348-422 motif 3 mt: T2 EBNA2_348-422 with motif 3 mutated from PTLEP to ATAEA (protein)
# chain: B1 chain with D62S, P67A, S68T, I69A, D70E, P71A
# modifications: left off: His6, N-terminal, cleaved
# notes: T2 EBNA2_348-422 with motif 3 mutated from PTLEP to ATAEA
# Molecular target: T1, BS69CC-MYND (BS69 amino acid 480–602, CC-MYND domain)
# Assay: Isothermal titration calorimetry (ITC) of EBNA2 peptides and polypeptides binding to BS69CC-MYND
# Details: 25°C, pH 7.5, 29 injections of 1.3 μl 0.3 mM EBNA2 polypeptide into 0.1 mM BS69CC-MYND, mean ± SD of 3 independent experiments, read-out: KD1 (binding event 1), two-site (two event) binding model
# From the text: We hypothesised that the impaired gene activation and growth maintenance properties of type 2 EBNA2 may be the result of increased binding to BS69 as a result of the aspartate to serine amino acid difference adjacent to BS69 binding motif 2. […] We used isothermal titration calorimetry (ITC) to determine the affinity of peptide binding to the C-terminal region of BS69 (amino acid 480–602) comprising the CC-MYND domain that we expressed and purified from E.coli (Fig 1B and 1C). […] The difference in binding between type 1 and type 2 EBNA2 motif 2 peptides could be influenced by both the aspartate to serine change and differences in two other amino acids present in the sequence (Fig 1B and 1C).
# The BS69 CC-MYND domain (amino acids 480–602) was amplified from pCI-BS69 containing the full length human BS69 sequence (gift from Dr Stéphane Ansieau) and cloned using SLIC into the SmaI and HindIII sites of pET49b+ to generate a construct expressing an N-terminal GST-6x Histidine tag BS69CC-MYND fusion protein (S2 Table).
# Four commercially synthesized peptides (Peptide Synthetics) were used for ITC. These included BS69 binding motif 2 of type 1 EBNA2 (435–445) or type 2 EBNA2 (402–412) and putative BS69 binding motif 3 of type 1 EBNA2 (445–455) or type 2 EBNA2 (412–422).
# Frozen protein was quickly thawed using running water and dialysed overnight at 4°C using Slide-A-Lyzer MINI Dialysis Units (Thermo Scientific) against ITC buffer (20mM Tris-HCl, 100mM NaCl and 1mM TCEP, pH 7.5). The next day, protein samples were centrifuged at 13000 rpm for 10 mins at 4 °C and the concentration was determined by NanoDrop spectroscopy (NanoDrop Technologies) with their respective molecular weights and extinction coefficients. EBNA2 peptides (1mM) and polypeptides (type 1, 0.3 mM and type 2, 0.6 mM) were titrated against BS69CC-MYND (0.1mM) at 25°C using a MicroCalTM iTC200 instrument (Malvern). For peptides, 13 x 3.0 μl injections were used for titration. For EBNA2 polypeptides 19 x 2.0 μl or 29 x 1.3 μl injections were used for titration. ITC data were corrected for non-specific heat and analysed using MicroCal Origin 7.0. The experiments were performed in triplicate alongside a control experiment with no BS69CC-MYND (buffer only in the cell). All polypeptides were used within 24 hrs of dialysis into ITC buffer.
row,Molecule,Kd [nM]
1,B1,8
2,B2,9
3,B3,8 ± 3
4,B4,5 ± 1

# Same assay, conditions: 25°C, pH 7.5, 29 injections of 1.3 μl 0.3 mM EBNA2 polypeptide into 0.1 mM BS69CC-MYND, mean ± SD of 3 independent experiments, read-out: KD2 (binding event 2), two-site (two event) binding model
row,Molecule,Kd [nM]
1,B1,136
2,B2,91
3,B3,200 ± 26
4,B4,94 ± 28

# Same assay, conditions: 25°C, pH 7.5, peptides 13 injections, polypeptides 19 injections, mean ± SD of 3 independent experiments
Molecule,"-TΔS, one-site model [kcal/mol]","ΔG, one-site model [kcal/mol]","ΔH, one-site model [kcal/mol]"
B5,19.5 ± 1.27,-7.80 ± 0.04,-27.3 ± 1.23
B2,45,-8.20 ± 0.18,
B6,14.4,-8.08 ± 0.06,
B7,17.2,-8.50 ± 0.07,

# Same assay, conditions: 25°C, pH 7.5, peptides 13 injections, polypeptides 19 injections, mean ± SD of 3 independent experiments, listed as T2 EBNA2 348-422
row,Molecule,"-TΔS, one-site model [kcal/mol]"
1,B2,45.0 ± 1.84

# Same assay, conditions: 25°C, pH 7.5, peptides 13 injections, polypeptides 19 injections, mean ± SD of 3 independent experiments, listed as T2 EBNA2 348-422 m3 mt
row,Molecule,"-TΔS, one-site model [kcal/mol]"
1,B7,17.2 ± 0.79

# Same assay, conditions: 25°C, pH 7.5, peptides 13 injections, polypeptides 19 injections, mean ± SD of 3 independent experiments, listed as T2 EBNA2348-412
row,Molecule,"-TΔS, one-site model [kcal/mol]"
1,B6,14.4 ± 2.48

# Same assay, conditions: 29 injections, mean ± SD of 3 independent experiments
Molecule,"-TΔS, event 1, two-site model [kcal/mol]","-TΔS, event 2, two-site model [kcal/mol]","n value, event 1, two-site model","n value, event 2, two-site model","ΔG, event 1, two-site model [kcal/mol]","ΔG, event 2, two-site model [kcal/mol]","ΔH, event 1, two-site model [kcal/mol]","ΔH, event 2, two-site model [kcal/mol]"
B1,21.0 ± 0.95,-4.62 ± 2.01,0.20 ± 0.01,0.20 ± 0.08,-11.1 ± 0.17,-9.44 ± 0.35,-32.1 ± 1.12,-4.82 ± 1.69
B2,23.1 ± 0.14,-8.04 ± 0.25,0.23 ± 0.01,0.21 ± 0.00,-11.0 ± 0.28,-9.62 ± 0.16,-34.1 ± 0.14,
B3,11.6 ± 0.31,0.47 ± 1.33,0.22 ± 0.01,0.20 ± 0.00,-11.0 ± 0.21,-9.14 ± 0.08,-22.7 ± 0.29,-9.62 ± 1.32
B4,20.4 ± 2.24,-1.95 ± 2.10,0.20 ± 0.00,0.19 ± 0.01,-9.60 ± 0.21,-11.3 ± 0.12,-31.7 ± 2.14,-7.65 ± 1.89
